Source: the NTF2 design screens of Basanta et al. (2020)

Experiment: protease stability score; higher = more stable; yeast display proteolysis, trypsin and chymotrypsin;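 further: relative to predicted unfolded state with 0 unfolded-like and 1 meaning tenfold more protease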

Row | Sequence | protease stability score
1 | DESQHVAEKVYKHLLKYWVTGDEDSVSRLVDPHARLHFEGRDLHGRHLISQFRMEWRLDHVHVDDMQVQGDKMEVRGKLDTTIDGRRTNLNEHLRLEKIDGRWYIREIRIE | 1.25
2 | DESQRDAHHASELVELVEKTGDWKMFEKLLDPHVRLQVGDKEFHGRHEAMRWIRETLERLGIDHREVRIEHIEFIGDKMIIHGEIILRFNGVTITHEEEFIVKKINGKWRMHEIRVR | 1.29
3 | DESREIAHKFLEIWIDAFKTGDEDLNSELLDPNTRRDVGDFRIHGMELIVKIMSKELEKYKGITFRVKIRHSTWQGDKIHLIVDILIIIGDKEERIETHFILEKIDGRWITTHMQIR | 1.34
4 | DESRESLEEALKIYIHDIKTGDEKSLTELADPNARLNFNGRWHHGREMVTKWMSEMRLHDFKLHELDVQGDKVHIRGEIFFEIDGRVIRSEIHIVMIKINGRWLLHSMHVE | 1.17
5 | DESRKAMRIALEIIEHMWRTGDETLRHELADPNTRVRIGDKELHGREELIRLWKELGFKHIEEIDLESIFVQGDKIHIDTRVHGEINGRHEVMRVVLIIHKIDGKWLIHSESHR | 1.49
6 | DESRREVRHFIDLWIELVETGDEDTIRHLADPHVKIVIGEKEDWGMEVFFRDFRRLGVDHMEIIVHRVDVIGNKAHVDFELRVHVDGQEFRFRLRLIVHKINGRWILRTIEIH | 1.68
7 | DESTEHLHRFFDLLIEWIRTGDEESLNKNADPNTRVEAENHEEHGREKFSKHLSEIMTHMRSHFVLRHVSFVGDKAIFDVEVIIIVNGREIKVRTFIIVVKINGRWLLKSVHIE | 1.6
8 | DESTENLREFIRVLLHLWETGNEDEFLRMADPNALVYDEHEYDHGWKAWKKLLEQYDVVTSIIPRHIRLIGDKVDIHTNLYMLINGRTVEVHTELLVKKIDGQWRIKFFLIR | 1.63
9 | DESTEVLERIMKDFLDELRTGDWEKFMELADPNVRLHFNGVTNHGREEVTRYFREHLARFDHYEIENHRVTLVGDKLHLDVILRVHQGDKFREYKVEIRVVVYDGKIKEVHIIIR | 2.44
10 | DESTHNRKIAVEILEHDNKTGDEKSIFRLFDPHVKIEVDGRDYHGREFFEEFIRKLGWTNIELTIKDVRSIGEFAEMRMEVRYGDWHFHTKVDVKKYNGQWLNREVRIA | 1.44
11 | DESTKAAEDIFEIIREMLETGDEETTRRLFDPDAKIIIGDKEIHGRENIELFMRLWLKQFDHVHDMTIRRMEIQGDKVIMDTEIHGTINGQRRTIRTRWIVVKINGKWSIHEVYFT | 2.02
12 | DESTKEARKFKHEFDNDWKTGDEDSLLRLADPHVRTDVNGVENHGREDFVKLLMDIFREMRTEMRTRHVTVFNGRIEVHSTLHLHQGDKVIDLEVLIINRKVNGRWILESMEIK | 0.603
13 | DESTKNAQEVIKMIKEIVETGDWRRHHQLVDPNARLHVHINGKDEESHGREEFTRVLMELWKEFGAKHVRFEDFELQGEKIHFHVKINVDGKDVKLLIVALKINGRWLMESVYVEFH | 1.19
14 | DESTRDFRQFFKLLVEHFKTGDWRRLADLFDPNVRVEINGRELHGRENIALWLRDRFKHLGVDHVHMRIRDLEVQGDKIRIHVELEIRVGDKVFYHETVLVIEKFDGRWIVHEEEYK | 1.49
15 | DESTRDVKEMVEWFLRTLHTGDEHLLEHLLDPDVRVLIDGREHHGRETMREIWKEHIDKIKGAVIEIKRIEVRIQGNKAHLHVDTVLHYNGRNLDTHIEIIITKINGQWRVREVEIRVR | 2.21
16 | DESTSQARKAIEQLIHVEETGDEEMFSTLVDPHVRMDYNGVELHGMEKARNHWNELWKRFKGIKIELKRLEIQGNKVRVQMTYIVGDKNKYVEIHITKIDGQWVITEIHVD | 1.12
17 | DETASRAAERYMKALQTGDPDEVVKQIDPNVHVRVGDKEVQGKEQFRKKQERDKKQARYHIKHVTFNVEGDKVRVDVIFRKHHNGQPRHDRMEQRMSVRGDKITHQENHKTG | 0.172
18 | DETDEHAHKMFEIIIHYLLTGDWKELIKLADPHVKLEFDINGKTIDLVGRELFTEFFLRFKNVRSEIDDVRHIGDKNHARVRVNWDGRDTEVQIDIVIIDGVVHRVRLIFK | 2.59
19 | DETDEWAHKLMELILEYWLTGDWDLFNELADPNVKLIINGRESVGREEVREMLERTLKEIRLRRIEIDHVRIYDGRAQTHSRTDGDVNGKVTETHMHLHVLLINGRIRHVEIRLH | 2.02
20 | DETDEYARNMMEIFVHLLATGNEEKMLEYMDPNTRHNFNGVVLHGRDVLREWWHRWLKEIRITRTRIDHVHTQGEYVHANTTVEGTIDGRKFELETRVHLHVVNGRIKESSIKLN | 1.51
21 | DETDKLAFELMEELLENFHTGNEERFHQLFDPDVRIIVNGRTLHGRRHWHKILEDIIREWRIKHIHMERLISIGDKARLDMRWNVRVNGREVHTESHVNLTVVDGRITLLEIQHH | 1.52
22 | DETEDEMHKVLKLWIEAYRTGDEELLEELFDPHVRLDINGKDFHGREAFTRQVRHEMKHLRYEDFHIDTVEVQGEKAFVHGRIVGKFDGRRRHMHSHLIILKINGRWHVESLHFK | 1.26
23 | DETEDTIHEAVKEFVTALMTGDEELLQKLMDPRTRLDYNGREIHGREEVIRLLLEMRIHHVEIKRIEIQGNKVHVDVKVDGEFNGQRRETKTIINATKINGRWVVQELVIR | 2.26
24 | DETEDTSRHLLELFAHALRTGDEESSDRLLDPHVRIDINGKELIGRERFRELWEEMRIEWVKIRDVSIINGQVHVNGEMLMVYDGRTYTIETRIIILKVDGRWVIEHMKIG | 1.43
25 | DETEEAVLSVARLWLHLFLTGDEERTQKMMDPNARVEIDGKEVVGREKVTDMIRHKIEQIRIQDHKEKDIKVIGDKVHLHVQFHGEVDGKEINTLILINVMVVDGRIKHVEIRVS | 0.77
